Results published in patent US20240287489A1, “CHITINOLYTIC ENZYME-BASED PLANT PROTECTION AGENTS” (GLOBACHEM NV, priority 2021, published 2024).

What was measured:
[1] = TLC analysis of cleavage patterns with chitin standard molecules; type: biochemical; conditions: for hydrolysis products from chitin pentamers / hydrolysis products from chitin trimers: 4 mg/ml, 16 h, TLC; for cleavage mechanism (exo-/endo-chitinase activity): TLC of products from oligomeric or polymeric chitin substrates
Experimental: monomeric oligomers. Chitosan was degraded to a crude mixture of multiple oligomers ranging from dimers to pentamers and even larger undefined yet water-soluble fragments that migrated slightly from the starting point. Further analysis of the cleavage patterns was carried out using chitin standard molecules of DP2-DP6 and incubating them at 4 mg/ml concentration with the individual enzymes (FIG. 9).
Dimeric chitin molecules were not converted by any of the enzymes. […] All chitinases degraded chitin tetramers to dimers as a single product. […] Chitin hexamers were degraded to dimers and trimers. Although all chitinases are different in their structure and present different glycosyl hydrolase domains hydrolysis products in general were similar.
C2, 4 and 5 yielded similar product patterns when incubated with insoluble substrates. […] The presented data underline that the novel chitinases are all suited for the degradation of powdery chitin without any further harsh chemical pre-treatment.
Hydrolysis products were analyzed using 10×10 cm TLC Silica gel 60 F254 plates (Merck, Darmstadt, Germany) and a mixture of butanol:methanol:25% ammonia:H2O (5:4:2:1) as mobile phase. A total sample volume of 0.5 μl was applied in 0.25 μl spots. Chitin standard sugars (Megazyme, Chicago, USA) (5 mg/ml) were applied to the plate (0.5 μL in 0.25 μL spots) as size standard for the determination of the DP. After separation, the plate was air-dried and the developing solution (200 ml Acetone, 30 ml phosphoric acid (85%), 4 ml aniline, 4 g diphenylamine) was sprayed on the plate followed by spot visualization at 300° C. using a heat gun.

[2] = Temperature, pH and NaCl optima and temperature stability of recombinant chitinases (reducing end assay); type: biochemical; conditions: chitin powder; for Optimum pH: 30° C., pH 4-11; for Optimum salinity: pH 8, 30° C., 0-20% w/v NaCl; for Optimum temperature: pH 8, range 10-60° C.
Experimental: All enzymes were first characterized regarding their temperature and pH-optima as well as the optimum NaCl content as the enzymes were isolated from a sea-water microorganism. As the future intention is to integrate these novel enzymes in a degradation processes of natural chitin, all parameters were determined using chitin powder as a substrate instead of pre-treated analogs such as colloidal chitin, glycol chitin or artificial fluorogenic substrates. […] (FIG. 5A). Next, enzyme temperature stability was investigated (FIG. 51). […] Enzyme C1 retained a 50% residual activity after 240 min incubation at 60° C., while the activity of the other chitinases dropped below 50% after 15 min and remained on that level.
Given the marine origin of the P. orarium strain, the effect of salt was also evaluated, testing the addition of NaCl to the standard buffer. […] Increasing NaCl amounts up to 20% (w/v) reduced enzyme activity substantially to 10% for C2, 4 and 5, with C1 and C3 showing highest tolerance (65% activity).
For the determination of enzymatic activity of recombinant chitinases, a reducing end assay was carried out [Svein et al., Carbohydr Polym, 2004. 56(1): p. 35-39.]. Fractions containing chitinases were incubated with 5% (w/v) chitin powder extracted from shrimp shells (˜400.000 g/mol; Carl Roth) in MAT buffer for 2 h in an overhead shaker at ambient temperature (standard conditions). Samples were centrifuged at 13000×g for 2 min and 40 μl of the supernatant was mixed with 40 μl 0.5 M NaOH and 40 μL of a reagent containing 1.5 mg/ml 3-Methyl-2-benzothiazolinonhydrazon and 0.75 mg/ml Dithiothreitol. Samples were incubated at 80° C. for 15 min and then thoroughly mixed with 80 μl of 0.5% (w/v) FeNH4(SO4)2)×12H2O, 0.5% (w/v) sulfamic acid and 0.25 M HCl. After cooling down to room temperature, 100 μl of the samples were measured at 620 nm. A calibration curve of N-acetyl-glucosamine was constructed freshly for each measuring cycle. One unit [U] was defined as the amount of enzyme required to release 1 μmol of reducing sugars per hour.
(§1) Enzyme samples were incubated at different temperature (10-60° C., 10° C. increment) and pH (4-11, increment 1) using different buffer systems (Acetate, Tris-HCl, MES, total molar concentration 100 mM), as well as NaCl content (0, 1. 2.5, 5, 10 and 20% w/v) to determine optimum reaction conditions. All experiments were carried out at 1.0 ml scale using 2 μM of the respective enzymes and a 5% (wv) suspension of chitin powder extracted from shrimp shells (˜400.000 g/mol; Carl, Roth) in 100 mM MAT buffer. For the determination of the substrate specificity, chitin powder (5% w/v), glycol chitin (10% v/v), colloidal chitin (5% w/v), chitosan [DA 15-25%, medium molecular weight, Sigma-Aldrich] (5% w/v) and microcrystalline cellulose powder (Sigma Aldrich) (5% w/v) were investigated, respectively. The effect of several potential co-factors on activity was elucidated at a concentration of 1 mM. Additionally, the effect of detergents [SDS 0.5% (w/v), Tween-20 and Triton X-100 both at 0.5% (v/v)] and chemicals (Imidazole 100 mM, EDTA 1 mM) on enzymatic activity was assessed. Samples were incubated in a thermomixer for 16 h at 900 rpm. After incubation, samples were analyzed using the enzyme assay. Thermostability was assessed after incubation of recombinant chitinases at 60° C. for different durations followed by the quantification of residual enzyme activity under standard assay conditions.

Gibberella zeae = type: cell-based; parameters: key: xx = no growth/strong inhibition; x = small inhibition; conditions: start concentration 100 μg/ml
[3] = Enzyme kinetics on chitin powder (Michaelis-Menten non-linear fit); type: biochemical; conditions: 2 μM enzyme, 0-150 mg/ml chitin powder
Experimental: Enzyme kinetics were determined using chitin powder as a substrate and the optimum enzyme to substrate ratio could be determined as well as Vmax and Km values. The concentrations of chitin powder varied
from 0 mg/ml up to 150 mg/ml while amount of enzyme was kept constant (2 μM). The initial velocities (V0) versus substrate concentration ([S]) were plotted as Lineweaver-Burk and Michaelis-Menten curves using GraphPad software (FIG. 7).
Maximum reaction velocities (Vmax) and Michaelis-Menten constants (Km) were determined using a non-linear fit Michaelis-Menten model (Table 4.6). Thereby, optimum enzyme-substrate ratios were determined that would allow a maximization of substrate conversion rates. Furthermore, the Km indicated the reciprocal enzyme-substrate affinity for C1-C5. Higher Km values reflect an overall lower affinity and thus reduced conversion efficiencies. […] In comparison, higher Km values for C2 and C5 reflected an overall lower affinity to insoluble chitin.
as §1

B1: Chitinase 4: chitinolytic enzyme from P. orarium, SEQ ID NO: 4, recombinant with PelB signal peptide and 6×His tag (protein, listed as Photobacterium orarium)
chain: MAQAAANCRPDGLYQTPGVTVPYCTVYDQDGREKMGVDHPRRVIGYFTSWRSGNDPQSSYLVNDIPWDSLTHINYAFVSIGSDGKVNIGNVNNPDNPAVGKEWPGVEIDPALGFKGHFGALATAKAQHGVKTLISIGGWAETGGHFDDNGNRVADGGFYTMTTNADGSINHQGIQTFADSAVAMMRQYKFDGLDIDYEYPTSMQGAGNPDDFAYSDAMRPHLMKSYHELMKVLREKLDQASAQDGHHYMLTIAAPSSGYLLRGMETMSVTKYLDYVNIMSYDLHGAWNDYVGHNASLFDSGLDAELEAGNVYGTAQYKKTGYLNTDWAYHYFRGSMPAGRINIGVPYYTRGWQGVTGGTNGLWGKAALPNQSDCPTGTGAGTSNCGYGAIGIDNMWHDKDANGNEMGAGSNPMWHAMNLANGVYGSYTAAYGLDPVNDPQDALTGTYTRHYDSVSVAPWLWNADKKVFLSTEDKESINTKADYVIEQGIGGIMFWELAGDYSCYNLDANGNRTTVDPTENACKTGNGEYHMGDTMTKAIHNKFATATPYGNTLAEGAIPTEAVNIDVSVTGFKVGDQNYPLNPTMTLTNKTGQTLPGGTEFQFDIPTSTPDNMSDQSGANLQVISSGHTRGDNIGGLDGNFHRVAFTLPSWKQLGNNESFELTLNYFLPISGPANYSVRVNNADYALAFEQPDLPIADLSNGGGDNGGGDGNNGDCVTTGVNTYPNWPQTDWAGNPSHAGTGDKIIYNGAVYQAKWWTNSVPGSDGSWDTVCTVQIE
modifications: PelB signal peptide; 6xHis tag; Chitinase 4
hydrolysis products from chitin pentamers [1]: trimers and dimers | hydrolysis products from chitin trimers [1]: dimers and monomers | cleavage mechanism (exo-/endo-chitinase activity) [1]: endo-chitinase activity | Optimum pH [2]: 8 | Optimum salinity [2]: 1 % NaCl | Optimum temperature [2]: 30 °C | growth inhibition of Gibberella zeae in the MIC test (Gibberella zeae): x | Km (enzyme-substrate affinity) [3]: 22.2 mg/mL | Vmax (maximum reaction velocity) [3]: 218.6 U/ml

B2: Chitinase 3: chitinolytic enzyme from P. orarium, SEQ ID NO: 3, recombinant with PelB signal peptide and 6×His tag (protein, listed as Photobacterium orarium)
chain: MALAAPGTPQLAWMETDYAIVEVDQAATAYKDLVTVKNAADVPVAWQRYSGETADHWKVKLNGNVAFEESINPASSGAGSTTLSITQGGQYALTVELCSGSGAEEACSSSPATNIVVADTDGSHLDPLPMNVDPNNGTYSTPADTVVGAYFVEWGVFGRKFTVDKIPAQNLTHILYGFIPVCGPNESLGEIESGNSLAALNRACAGTPDFEVAIHDPWAAVQMPQPQSGHTYSTPYKGNYGQLMALKQRYPDLKVIPSIGGWTLSDPFFSFTDKSKRDVFVASVKKFLQTWKFFDGVDIDWEFPGGKGANTTLGDPVNDGPAYVALMRELRTMLDGLEAETGRQFELTSAIGVGYDKIDVVNYAEASQYMDYIFNMSYDFYGGWSNVTGHQTALNCGSHLTADQCNGTGVDENGEPRQGPAYTTAHGVERLLAQGVPANKLVVGAAMYGRGWTGVTQASMTDPSNPMTGVGNGAVAGSWEAGVIDYKDVVTRYENKAGVVLGYDEQAEAPWAYDPSNGDLVTYDSPRSIMAKGQYVRDLGLAGLFAWEIDADNGDILNAMQESLAGAPAGNRAPVARAGSDQQVNTAATVTLNGSSSTDSDGQIAGYQWVQTSGPALTLNGANTASATISVPDVTVDTQYVFTLTVTDNEGATATDSITVTAKAPGAQNTAPVASLTGPGTANADDVITLDASQSTDADGDTLTYDWTVPAGVNAVINGSSLSFTADSYTTDTALSFSVSVSDGTASDAASLTVTIAKDESGTGGEGDFPAYVEGTAYQAGDQVSNGGVNFECKPYPYSGWCSGAAWAYEPGVGVYWQDAWTQLIE
modifications: PelB signal peptide; 6xHis tag; Chitinase 3
hydrolysis products from chitin pentamers [1]: dimers and monomers | hydrolysis products from chitin trimers [1]: dimers and monomers | cleavage mechanism (exo-/endo-chitinase activity) [1]: exo-chitinase activity | Optimum pH [2]: 8 | Optimum salinity [2]: 5 % NaCl | Optimum temperature [2]: 30 °C | growth inhibition of Gibberella zeae in the MIC test (Gibberella zeae): x | Km (enzyme-substrate affinity) [3]: 15.2 mg/mL | Vmax (maximum reaction velocity) [3]: 206.2 U/ml
